We go through four molecules from US20210347873A1 (SHANGHAI PHARMAEXPLORER, published 2021).

What is called EC50 (read off the curve) is the concentration needed to bring the measured effect to its halfway point.

The target in test [1] is biotinylated hBLyS-ECD (human) (UniProt Q9Y275). Kind of test: ELISA, coated antibody; biotinylated hBLyS-ECD 0.5 ng/mL.
Test [2] has the same target. Nature of the test: ELISA, coated antibody; biotinylated hBLyS-ECD 0.0008 ng/mL.
The target is the same in test [3]. Nature of the test: ELISA, coated antibody; biotinylated hBLyS-ECD 0.000006 ng/mL. In general terms: An ELISA detects its analyte on a solid surface through an enzyme-linked reagent.
Test [4] has the same target. Nature of the test: ELISA, coated antibody; biotinylated hBLyS-ECD 0.02 ng/mL.
Test [5] shares this target. Kind of test: ELISA, coated antibody; biotinylated hBLyS-ECD 0.1 ng/mL.
For test [6] the target is unchanged. Nature of the test: ELISA, coated antibody; biotinylated hBLyS-ECD 0.000032 ng/mL.
For test [7] the target is unchanged. Nature of the test: ELISA, coated antibody; biotinylated hBLyS-ECD 0.004 ng/mL.
For test [8] the target is unchanged. Kind of test: ELISA, coated antibody; biotinylated hBLyS-ECD 0.00016 ng/mL.
The target in test [9] is T1, biotinylated hBLyS-ECD (human, UniProt Q9Y275 134-285, biotinylated with Biotin-X-X-NHS (molar ratio 7:1), sites not stated).
T1 construct: The hBLyS-ECD of Embodiment 1 after biotinylation (Embodiment 2); also called biotinylated immunogen; BLyS protein; not shown: His tag of the pCPC vector
Kind of test: receptor-ligand blocking ELISA: BAFF R coated, biotinylated hBLyS-ECD added with titrated antibody, HRP-avidin; blocked partner: BAFF R.

For test [10], the target named is T1, biotinylated hBLyS-ECD. Nature of the test: ELISA: biotinylated hBLyS-ECD captured on streptavidin, antibody titrated, HRP secondary antibody.
The target in test [11] is T1, biotinylated hBLyS-ECD. Kind of test: ELISA, biotinylated hBLyS-ECD captured on streptavidin; antibody 0 nM (blank). How it is done:
(§1) Streptavidin was first diluted to a final concentration of 1.0 μg/mL with PBS, and then 50 μL of diluted streptavidin per well was aliquoted into 96-well ELISA plate, which was subsequently sealed with plastic film and incubated at 4° C. overnight. On the next day the plate was washed four times with the plate washing buffer [PBS buffer containing 0.05% (v/v) Tween20] and added with the blocking solution [PBS buffer containing 0.05% (v/v) Tween20 and 1% (w/w) BSA] and blocked for 2 hours at 37° C. The blocking solution was removed, the biotinylated hBLyS-ECD prepared in Embodiment 2 was diluted with PBS to a final concentration of 50 ng/mL and then aliquoted into the 96-well ELISA plate at 50 μL per well and incubated for 1 hour at 37° C. After rinsing the plate four times with the plate washing buffer [PBS buffer containing 0.05% (v/v) Tween20], 100 μl of the purified lead antibody harvested in Embodiment 1 and 2 was pipetted into each well. After incubation for 1 hour at 37° C., the plate was rinsed four times with the plate washing buffer [PBS buffer containing 0.05% (v/v) Tween20]. HRP-labeled (horseradish peroxidase) secondary antibody (purchased from Sigma) was added in and incubated at 37° C. for 1 hour. The plate was then rinsed four times with the plate washing buffer [PBS buffer containing 0.05% (v/v) Tween20]. 100 μL of TMB substrate was aliquoted into each well and after incubation for 5 minutes at room temperature, 100 μL of stop solution (1.0 N HCl) was aliquoted into each well. A₄₅₀ₙₘ values were read via an ELISA plate reader (SpectraMax M5e purchased from Molecular Devices) and the results were shown in FIGS. 5A-5B and Table 10.

Test [12] concerns the target T1, biotinylated hBLyS-ECD. Kind of test: ELISA, biotinylated hBLyS-ECD captured on streptavidin; antibody 0.534 nM. How it is done:
as §1

Test [13] deals with T1, biotinylated hBLyS-ECD. Kind of test: ELISA, biotinylated hBLyS-ECD captured on streptavidin; antibody 66.7 nM. How it is done: as §1
For test [14], the target named is T1, biotinylated hBLyS-ECD. Kind of test: ELISA: biotinylated hBLyS-ECD captured on streptavidin, antibody titrated, HRP secondary antibody [label printed at the top of D00004]. How it is done:
as §1

The target in test [15] is T2, cynomolgus BLyS (full length, arginine 132 mutated to histidine) on CHO-K1 cells (cynomolgus, UniProt Q9Y275 1-285 (human entry)).
T2 construct: also called cyno BLyS; CHO-K1 cynoBLyS
T2 chain: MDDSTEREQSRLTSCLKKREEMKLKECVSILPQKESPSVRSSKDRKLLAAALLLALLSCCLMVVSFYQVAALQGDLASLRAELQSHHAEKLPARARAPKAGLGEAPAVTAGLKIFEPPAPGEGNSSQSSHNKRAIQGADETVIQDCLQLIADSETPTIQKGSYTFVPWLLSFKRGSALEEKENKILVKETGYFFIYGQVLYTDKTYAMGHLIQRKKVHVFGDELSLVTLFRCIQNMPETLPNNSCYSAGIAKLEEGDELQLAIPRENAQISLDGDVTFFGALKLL
Nature of the test: flow cytometry (FACS) on CHO-K1 cynoBLyS cells, Alexa 488 secondary antibody. How it is done:
(§2) The medium was aspirated completely, and the cells were rinsed once with PBS buffer (purchased from Invitrogen) and then treated with cell dispersion solution (TrypLE™ Express Enzyme, purchased from Life technology) and collected. The detailed steps are as follows: the cells were rinsed once with PBS buffer, after counting, the cells were diluted to 2×10⁶ cells/ml with PBS buffer, blocked with 2% (w/w) fetal bovine serum and incubated on ice for 30 minutes. 200 μL of which per well was aliquoted into a 96-well FACS plate and centrifuged at 2000 rpm at 4° C., then each 100 μL of the lead antibodies obtained from Embodiment 1 and 2 were aliquoted into each well and incubated on ice for 1 hour. […] After centrifuged and rinsed 3 times with FACS buffer, cells were suspended with 200 μL of FACS buffer and the results were detected and analyzed by FACS (FACS Calibur, purchased from BD). It was shown in Tables 12-13 that the lead antibody could bind to human BLyS protein on the cell surface and the lead antibody could cross-react with cynomolgus BLyS. The data in the table is MFI, the average fluorescence intensity of the cell population.
In general terms: In flow cytometry, cells or beads pass a laser one at a time.

Test [16] deals with T3, human BLyS (full length, arginine 132 mutated to histidine) on CHO-K1 cells (human, UniProt Q9Y275 1-285).
T3 construct: also called hBLyS; CHO-K1 hBLyS
T3 sequence (Q9Y275 other isoform, or with tags, fused parts or gaps limits assumed, change not shown): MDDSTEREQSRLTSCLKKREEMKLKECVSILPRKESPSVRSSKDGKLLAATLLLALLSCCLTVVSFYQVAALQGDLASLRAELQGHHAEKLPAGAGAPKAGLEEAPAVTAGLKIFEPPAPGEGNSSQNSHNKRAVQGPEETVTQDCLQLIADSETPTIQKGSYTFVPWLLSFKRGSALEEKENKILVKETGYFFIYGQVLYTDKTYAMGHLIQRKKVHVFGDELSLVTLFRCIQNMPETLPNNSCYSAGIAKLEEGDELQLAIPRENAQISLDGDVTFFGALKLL
Nature of the test: flow cytometry (FACS) on CHO-K1 hBLyS cells, Alexa 488 secondary antibody. How it is done: as §2

Test [17] concerns the target T1, biotinylated hBLyS-ECD. Nature of the test: ELISA, biotinylated hBLyS-ECD captured on streptavidin; antibody 13.3 nM. How it is done: as §1
Test [18] concerns the target T1, biotinylated hBLyS-ECD. Nature of the test: ELISA, biotinylated hBLyS-ECD captured on streptavidin; antibody 0.00427 nM. How it is done:
as §1

Test [19] deals with T1, biotinylated hBLyS-ECD. Kind of test: ELISA, biotinylated hBLyS-ECD captured on streptavidin; antibody 0.107 nM. How it is done: as §1
Test [20] concerns the target T1, biotinylated hBLyS-ECD. Nature of the test: ELISA, biotinylated hBLyS-ECD captured on streptavidin; antibody 2.67 nM. How it is done:
as §1

The target in test [21] is T1, biotinylated hBLyS-ECD. Nature of the test: ELISA, biotinylated hBLyS-ECD captured on streptavidin; antibody 0.0213 nM. How it is done: as §1
Test [22] concerns the target T1, biotinylated hBLyS-ECD. Kind of test: ELISA: biotinylated hBLyS-ECD captured on streptavidin, antibody titrated, HRP secondary antibody. This is another data set of the same source.

BLyS antibody (purchased from GSK): the OD450 nm in [1] amounted to 3.39; in test [2] it was 2.01; in [3], 0.08; in test [4] it was 3.24; in test [5], 3.36; in test [6], 0.19. The OD450 nm came out at 3.14 in [7] and 0.54 in test [8].

B1: c111D10D6G3 (antibody, human IgG1, V domains shown)
VH: QVQLQQPGAELVKPGASVKMSCKASGYTFTRHWITWVKQRPGQGLEWIGDIFPGSGSINYNEKFKSEATLTVEKSSSTAYMQLSSLTSEDSAVYYCARGDVDVWGTGTTVTVSS
VL: DIQMTQSPSSLSASLGERVSLTCRASQEIRGYLSWLQQKPNGTIKRLIYAASTLDSGVPKRFSATRSGSDFSLTISSLESEDFADYYCLQYASYPFTFGSGTKLEIK
notes: also called BLyS chimeric antibody
On to B1, for which the “IC50 (read off the curve)” value in the test with biotinylated hBLyS-ECD [9] is around 0.08 nM. The “EC50 (read off the curve)” value with biotinylated hBLyS-ECD [10] is around 0.07 nM.

B2: 8E7D9C7F5 (antibody, V domains shown)
VH: QVQLQQSGVELARPGASVKLSCKASGYTFTSYGISWVKQRTGQALEWIGEIYPRSGNTYYNEKFKGKATLTADKSSSTAYMELRSLTSEDSAVYFCARSGPITTLVATDYGMDYWGQGTSVTVSS
VL: DIVLTQSPASLAVSLGQRATISCRASKSVSTSSYSYMHWYQQKPGQPPKLLIKFASNLESGVPARFSGSGSGTDFTLNIHPVEEEDAATYYCQHSREFPYTFGGGTKLEIK
notes: Mouse hybridoma antibody purified on Protein G
With B2, the OD450 nm with biotinylated hBLyS-ECD [11] was found to be 0.0564; with biotinylated hBLyS-ECD [12] it was 2.06; in the test with biotinylated hBLyS-ECD [13] it was 2.72; in the test with biotinylated hBLyS-ECD [17], 2.56; with biotinylated hBLyS-ECD [18] it was 0.115; in the test with biotinylated hBLyS-ECD [19], 0.946. Besides, the OD450 nm with biotinylated hBLyS-ECD [20] stood at 2.53; in the test with biotinylated hBLyS-ECD [21], 0.291. Further, the “EC50 (read off the curve)” value is around 0.2 nM in the test with biotinylated hBLyS-ECD [14], around 0.1 nM in [15] and around 0.1 nM in test [16].

B3: c97A3C2H4 (antibody, human IgG1, V domains shown)
VH: EVKLVESGGGLVQPGGSLKLSCAASGFTFSTYTMSWVRQTPEKRLEWVAYISYGGGSTSYPDTVKGRFTISRDNAKNTLYLQMSSLKSEDTAIYYCTRHVTVVENSMDYWGQGTSVTVSS
VL: DILLTQSPDILSVSPGERVSFSCRASQSIGTSIHWYQQRTNGSPRLLIKYVSESFSGTPSRFSGSGSGTAFTLTINSVESEDIADYYCQQTHSWPWTFGGGTKLEIK
notes: as for B1
Consider B3, for which the “IC50 (read off the curve)” value with biotinylated hBLyS-ECD [9] was around 2 nM. In addition, the results for the half-maximal effective concentration (EC50 (read off the curve)) with biotinylated hBLyS-ECD [10] and in the test with biotinylated hBLyS-ECD [22] were around 0.05 nM and around 0.1 nM, respectively.
